Laboratory results published in paper PMC7073074 (2020).

What was measured:
rabbit muscle F-actin [1] = molecular target: T1, rabbit muscle F-actin (Oryctolagus cuniculus (Rabbit), UniProt P68135); assay: F-actin co-sedimentation, Coomassie SDS-PAGE
rabbit muscle F-actin [2] = molecular target: T1, rabbit muscle F-actin; assay: F-actin co-sedimentation, Coomassie SDS-PAGE (apparent Kd given only as 8.9 µg, CI 5-20 µg); low ionic strength: co-pellets at 50 mM NaCl but not at 100 or 150 mM NaCl; polymerised (F-)actin

B1: FLAG-tagged coronin A lacking the coiled coil (protein)
chain: MSKVVRSSKYRHVFAAQPKKEECYQNLKVTKSAWDSNYVAANTRYFGVIWDAAGGGSFAVIPHEASGKTTSVPLFNGHKSAVLDIAFHPFNENLVGSVSEDCNICIWGIPEGGLTDSISTPLQTLSGHKRKVGTISFNPVADNVAVTSSGDFLVKTWDVEQGKNLTTVEGHSDMITSCEWNHNGSQIVTTCKDKKARVFDPRTNSIVNEVVCHQGVKNSRAIFAKDKVITVGFSKTSERELHIYDPRAFTTPLSAQVVDSASGLLMPFYDADNSILYLAGKGDGNIRYYELVDESPYIHFLSEFKSATPQRGLCFLPKRCLNTSECEIARGLKVTPFTVEPISFRVPRKSDIFQDDIYPDTYAGEPSLTAEQWVSGTNAEPKTVSLAGGFVKKASAVEFKPVVQVQEGPKN
binding result (rabbit muscle F-actin [1]): no binding

B2: FLAG-tagged coronin A (protein)
chain: MSKVVRSSKYRHVFAAQPKKEECYQNLKVTKSAWDSNYVAANTRYFGVIWDAAGGGSFAVIPHEASGKTTSVPLFNGHKSAVLDIAFHPFNENLVGSVSEDCNICIWGIPEGGLTDSISTPLQTLSGHKRKVGTISFNPVADNVAVTSSGDFLVKTWDVEQGKNLTTVEGHSDMITSCEWNHNGSQIVTTCKDKKARVFDPRTNSIVNEVVCHQGVKNSRAIFAKDKVITVGFSKTSERELHIYDPRAFTTPLSAQVVDSASGLLMPFYDADNSILYLAGKGDGNIRYYELVDESPYIHFLSEFKSATPQRGLCFLPKRCLNTSECEIARGLKVTPFTVEPISFRVPRKSDIFQDDIYPDTYAGEPSLTAEQWVSGTNAEPKTVSLAGGFVKKASAVEFKPVVQVQEGPKNEKELREEYEKLKIRVAYLESEIVKKDAKIKELTN
binding result (rabbit muscle F-actin [2]): binds
